B1: mRNA-splicing (parent)
chain: AGUUGCUGCUGGGAGCUCCAGCACAGUGAAAUGGACAGAAGGGCAGAGCAA

Variants of: B1
Test: exon inclusion enrichment index; higher = more inclusion; WT1 exon 5 minigene, HEK293

Row | Variant | exon inclusion enrichment index
1 | AGUUGAAGAAGGGAGCUCCAGCACUAUGAAAUGGACAGAAGGGCAGAGCAA [C6A U7A C9A U10A A25U G26A] | 0.899
2 | AGUUUCUUCCGGGAGCUCCAGCACAGUGAAAUGGACAGAAGGGCAGAGCAA [G5U G8U U10C] | 1.8
3 | AGUUUCUUCAGGGAGCUCCAGCACAGUGAAAUGGACAGAAGGGCAGAGCAA [G5U G8U U10A] | 0.444
4 | AGUUUCUUCGGGGAGCUCCAGCACAGUGAAAUGGACAGAAGGGCAGAGCAA [G5U G8U U10G] | 1.8
5 | AGUUGAAGAAGGGAGCUCCUUCACAGUGAAAUGGACAGAAGGGCAGAGCAA [C6A U7A C9A U10A A20U G21U] | 0.376
6 | AGUUGAAGAAGGGAGCUCCUCCACAGUGAAAUGGACAGAAGGGCAGAGCAA [C6A U7A C9A U10A A20U G21C] | 0.712
7 | AGUUGAAGAAGGGAGCUCCUACACAGUGAAAUGGACAGAAGGGCAGAGCAA [C6A U7A C9A U10A A20U G21A] | 0.432
8 | AGUUGAAGAAGGGAGCUCCGUCACAGUGAAAUGGACAGAAGGGCAGAGCAA [C6A U7A C9A U10A A20G G21U] | 0.779
9 | AGUUGAAGAAGGGAGCUCCGCCACAGUGAAAUGGACAGAAGGGCAGAGCAA [C6A U7A C9A U10A A20G G21C] | 0.891
10 | AGUUGAAGAAGGGAGCUCCGACACAGUGAAAUGGACAGAAGGGCAGAGCAA [C6A U7A C9A U10A A20G G21A] | 1.2
11 | AGUUGAAGAAGGGAGCUCCAGCUCAGUGAAAUGGACAGAAGGGCAGAGCAA [C6A U7A C9A U10A A23U] | 0.394
12 | AGUUGAAGAAGGGAGCUCCAGCCCAGUGAAAUGGACAGAAGGGCAGAGCAA [C6A U7A C9A U10A A23C] | 0.443
13 | AGUUGAAGAAGGGAGCUCCAGCGCAGUGAAAUGGACAGAAGGGCAGAGCAA [C6A U7A C9A U10A A23G] | 1.32
14 | AGUUUCAAUUGGGAGCUCCAGCACAGUGAAAUGGACAGAAGGGCAGAGCAA [G5U U7A G8A C9U] | 0.454
15 | AGUUUCGUUUGGGAGCUCCAGCACAGUGAAAUGGACAGAAGGGCAGAGCAA [G5U U7G G8U C9U] | 0.893
16 | AGUUUCUUUUGGGAGCUCCAGCACAGUGAAACUGACAGAAGGGCAGAGCAA [G5U G8U C9U U32C G33U] | 0.0499
17 | AGUUUCUUUUGGGAGCUCCAGCACAGUGAAACAGACAGAAGGGCAGAGCAA [G5U G8U C9U U32C G33A] | 0.0483
18 | AGUUUCUUUUGGGAGCUCCAGCACAGUGAAACCGACAGAAGGGCAGAGCAA [G5U G8U C9U U32C G33C] | 0.216
19 | AGUUGAAGAAGGGCCCUCCAGCACAGUGAAAUGGACAGAAGGGCAGAGCAA [C6A U7A C9A U10A A14C G15C] | 0.452
20 | AGUUGAAGAAGGGCACUCCAGCACAGUGAAAUGGACAGAAGGGCAGAGCAA [C6A U7A C9A U10A A14C G15A] | 0.473
21 | AGUUGAAGAAGGGCUCUCCAGCACAGUGAAAUGGACAGAAGGGCAGAGCAA [C6A U7A C9A U10A A14C G15U] | 0.408
22 | AGUUGAAGAAGGGAGCUCCAGCACCUUGAAAUGGACAGAAGGGCAGAGCAA [C6A U7A C9A U10A A25C G26U] | 1.21
23 | AGUUGAAGAAGGGAGCUCCAGCACCCUGAAAUGGACAGAAGGGCAGAGCAA [C6A U7A C9A U10A A25C G26C] | 1.25
24 | AGUUGAAGAAGGGAGCUCCAGCACCAUGAAAUGGACAGAAGGGCAGAGCAA [C6A U7A C9A U10A A25C G26A] | 1.67
25 | AGUUUCUUUUGGGAGCUCCAGCACAGUGAAAAAGACAGAAGGGCAGAGCAA [G5U G8U C9U U32A G33A] | 0.0443
26 | AGUUUCUUUUGGGAGCUCCAGCACAGUGAAAACGACAGAAGGGCAGAGCAA [G5U G8U C9U U32A G33C] | 0.219

Row | Variant | exon inclusion enrichment index
27 | AGUUUCUUUUGGGAGCUCCAGCACAGUGAAAAUGACAGAAGGGCAGAGCAA [G5U G8U C9U U32A G33U] | 0.0405
28 | AGUUGAUAAAGGGAGCUCCAGCACAGUGAAAUGGACAGAAGGGCAGAGCAA [C6A G8A C9A U10A] | 0.0495
29 | AGUUGAUAACGGGAGCUCCAGCACAGUGAAAUGGACAGAAGGGCAGAGCAA [C6A G8A C9A U10C] | 0.666
30 | AGUUUCCCUUGGGAGCUCCAGCACAGUGAAAUGGACAGAAGGGCAGAGCAA [G5U U7C G8C C9U] | 0.364
31 | AGUUGAAGAAGGGAGCUCCCCCACAGUGAAAUGGACAGAAGGGCAGAGCAA [C6A U7A C9A U10A A20C G21C] | 0.209
32 | AGUUGAAGAAGGGAGCUCCCACACAGUGAAAUGGACAGAAGGGCAGAGCAA [C6A U7A C9A U10A A20C G21A] | 0.223
33 | AGUUGAAGAAGGGAGCUCCCUCACAGUGAAAUGGACAGAAGGGCAGAGCAA [C6A U7A C9A U10A A20C G21U] | 0.286
34 | AGUUUCUUUUGGGAGCUCCAGCACAGUGAAAGAGACAGAAGGGCAGAGCAA [G5U G8U C9U U32G G33A] | 0.0116
35 | AGUUUCUUUUGGGAGCUCCAGCACAGUGAAAGCGACAGAAGGGCAGAGCAA [G5U G8U C9U U32G G33C] | 0.0926
36 | AGUUUCUUUUGGGAGCUCCAGCACAGUGAAAGUGACAGAAGGGCAGAGCAA [G5U G8U C9U U32G G33U] | 0.0291
37 | AGUUUCCACCGGGAGCUCCAGCACAGUGAAAUGGACAGAAGGGCAGAGCAA [G5U U7C G8A U10C] | 1.83
38 | AGUUUCCACAGGGAGCUCCAGCACAGUGAAAUGGACAGAAGGGCAGAGCAA [G5U U7C G8A U10A] | 0.168
39 | AGUUGAAGAAGGGAGCUCCAGCGGAGUGAAAUGGACAGAAGGGCAGAGCAA [C6A U7A C9A U10A A23G C24G] | 1.58
40 | AGUUGAAGAAGGGAGCUCCAGCGAAGUGAAAUGGACAGAAGGGCAGAGCAA [C6A U7A C9A U10A A23G C24A] | 1.85
41 | AGUUGAAGAAGGGAGCUCCAGCGUAGUGAAAUGGACAGAAGGGCAGAGCAA [C6A U7A C9A U10A A23G C24U] | 0.189
42 | AGUUGAAGAAGGGAGCUCCAGCACGCUGAAAUGGACAGAAGGGCAGAGCAA [C6A U7A C9A U10A A25G G26C] | 2.3
43 | AGUUGAAGAAGGGAGCUCCAGCACGAUGAAAUGGACAGAAGGGCAGAGCAA [C6A U7A C9A U10A A25G G26A] | 2.29
44 | AGUUGAAGAAGGGAGCUCCAGCACGUUGAAAUGGACAGAAGGGCAGAGCAA [C6A U7A C9A U10A A25G G26U] | 1.43
45 | AGUUUCAGAAGGGAGCUCCAGCACAGUGAAAUGGACAGAAGGGCAGAGCAA [G5U U7A C9A U10A] | 0.286
46 | AGUUUCGCUUGGGAGCUCCAGCACAGUGAAAUGGACAGAAGGGCAGAGCAA [G5U U7G G8C C9U] | 1.58
47 | AGUUGAAGAAGGGAGCUCCAGCACAGUGAAAUGGACAGAAGGGCAGAGCAA [C6A U7A C9A U10A] | 0.801
48 | AGUUUCAGUUGGGAGCUCCAGCACAGUGAAAUGGACAGAAGGGCAGAGCAA [G5U U7A C9U] | 0.173
49 | AGUUGAUCAAGGGAGCUCCAGCACAGUGAAAUGGACAGAAGGGCAGAGCAA [C6A G8C C9A U10A] | 0.392
50 | AGUUGAUCACGGGAGCUCCAGCACAGUGAAAUGGACAGAAGGGCAGAGCAA [C6A G8C C9A U10C] | 1.49
51 | AGUUGAAGCUGGGAGCUCCAGCACAGUGAAAUGGACAGAAGGGCAGAGCAA [C6A U7A] | 0.261

Source: the RNAGym collection of RNA variant scans (doi:10.1101/gr.219683.116)
